assay: soluble on expression in E. coli; label from the status in PepcDB or PDB records

Sequence | soluble on expression in E. coli
MSLVEDVKGVGFKTADKIASSLGIEADSPNRFRAALMHEVNTHSQSTGDTYIEAKNLLEMTIDLLEEARNVEVNPSAVAEEINGLIVDGKVQQEGTKIFENSLYFAEDGIRKSLTALTNRSGKDFADEKLLTVLAEVERDLEITYDDLQKQAIIGAMNQQFFILTGGPGTGKTTIINGFIETYARLHQLDLDPDHYNDDVFPILLAAPTGRASRRMNELTGLPAATIHRHLGLGQDEAEDALGNELSGALLIVDEFSMVDTWLANKLFQAIPGSMKVLLVGDADQLPSVGPGQIFADLLKIPEIPSVKLDKIFRQGDDSTITDLAHHIKDGQLPSDFTAKKPDRSYFEVSANFVPQMVEQIASAWQKRGNNPFELQILAPMYKGMAGINAMNVLLQNLFNPLNDRLEFALGDMKFREGDKVLHLVNDAEANVFNGDLGQIVELIAAKYTDSKQDELVMDFDGQELTYPRAEWYKITLAYAMSIHKSQGSEFSTVIVPMVSSYSRMLERNLLYTAITRAKQSLILLGEERAFAQAVAREGANRKTYLIERFMGENEGHHHHHH | soluble
MSLIRVSSAVQRHAQKLIVLFSLLFGASLLMSDNGFATDIKNTNASSPVNSESTKPTKAGEVKNVVRFAKTGSFDNDTVVRLARQLAKKPYVALKDPLPESLANISYDEYRDIRFKPDSAVWKADGLPYQMQLFHRGFFFQDLIEIALVEGNQATHLSYDPNMFTAGEVLQQNLPTEDIGYSGLRVHYPLNSPSYFDELFVFQGASYFRALGKGNAYGLSARGLAIKTADPAGEEFPIFRAFWVEKPNYDTNLIVVHALLDSPSVSGAYRFSIRPGENTRMDVEAVLFPRVELSKVGLAPATSMFMHSPNGREKTDDFRPSVHDSDGLLMINGRGERLWRPLANPSTLQVSAFMDNSPQGFGLMQRERDYANYQDLEAHYEKRPSLWVEPVGNWGPGAVVLTEIPTQSEIHDNIVAFWKPAQPLAAGSEYRFSYHLNWGAQPEANPQAITVSRTASGRADIAKPTPKRLFVIDYQVQGAKPAQMPEPKVRSNAGVISNVVLRDNPANNGYRLSFEFDPGEVTLAELRAELTLQEARPVETWLYRWTLEGGSHHHHHH | soluble
MSLKETEIIKLFQEELKSKVLGDDAGFIKLGDRWLLLTNDMLVWRTDVPDFMTPEEAGAKVVTMNVSDIAAMGGKPIGFFFSLGLPRDINEKTLREIAKGIKRGTKRYNVEVLSGDTNESNELVIDGGAIGEAERILLRSGAKPGEVVCVTGDLGRPLTALLLWLKGEKIPREIAEKMKNPIARVREGLELANYASSAIDISDGLSKELWEISKASKVKIVIDPNSLPVHEKVKEIVKNPVEVALASGEEFELVFTISQEYLDILSFEFSIIGRVEKGEGVYTTTGEKVPMRGWEHFAGGNNDIGSEGHHHHHH | soluble
MGSDKIHHHHHHMFTGTFTLRSRKSRHDHSSGNVRVCENEDMFESVGTWWRNLTHRHGDDRNNDDTLDDATNTLLSILPLASIVVDEHDEVIRAHPDAYALGVVRDDAIADDTVASAVHEVRAHGGKKQFSLTTTTLHEPKKAPKAGKPTMREVAKQALIGQSPDKPVTTVSRPNWLKVIVGRLNERFVVVLVSDVSETVRFSQIRDSFITNVSEQLLKPTQSLEELADALEHDSDNKAAIEGNTVKLRQSCARMEHMVSDLLLLIKAQEPILPTASNRINVMEQVKTVVDAHRDMAQRRGIDIEIDGDESLDINGEGEQIQAAVAKLLENAIAYSPDGKGITVSVKPNEDGTKVLLSVLDRGCGIAQKEQSRIFERFYRGGNQNGHSEEGIGLGLAIVKHVALTHHGSASVWSAPGQGSTFTLGLPVARN | not soluble
RYLLRATTDDLYLVHDRQVAPFDGDLNDYYKWLTEQQKAERKEAQALQPVKDTANSAAAKKEQKRREAEFRKLTAPIRKTLTQLENKMDKLGVALAEAEEQLADNSLYEAENKAKLNEVLALQASSKSELEEVEMEWMSAQEELEQMELEFNQ | not soluble
MSATETITTNARVLGADPLVKDGFGEEDMLTLVLPYIKTAREGVLRLGELLETYGTYESNGIAFADTEEIWWLKTIGGHNWIARRVPDDAYVTNPNQLGIDHYEFENPDDYLASPDIRDFINKHHLDLTYSNEHFNPRYAFGSQRDKDHHYNTPRARAM | soluble
MTPLVKDIIMSSTRMPALFLGHGSPMNVLEDNLYTRSWQKLGMTLPRPQAIVVVSAHWFTRGTGVTAMETPPTIHDFGGFPQALYDTHYPAPGSPALAQRLVELLAPIPVTLDKEAWGFDHGSWGVLIKMYPDADIPMVQLSIDSSKPAAWHFEMGRKLAALRDEGIMLVASGNVVHNLRTVKWHGDSSPYPWATSFNEYVKANLTWQGPVEQHPLVNYLDHEGGTLSNPTPEHYLPLLYVLGAWDGQEPITIPVEGIEMGSLSMLSVQIGLEHHHHHH | soluble
MSLELPAEVQEMPIYREWISGILAGKIASPFWEMAQPQKNQHCLDIGCGVSFLIYPWRDWQAFFYGQDVSNVARDTLNSRGSQLNSKLFKGVELGAAHQLKYTLSYFDLAIATGFSCYFPLEYWTSVLQAVKRVLKPDGHFVFDILNAAHPQAEDWAVLETYLGAEVFLEPVTEWEKIINAAGAKVVGRQPGEFFDLYKLRLEHHHHHH | soluble
MKDDKTILILTAQFGAGHISAAKAVKECIIEKYSNYNVVIQNFINASIPMMNKPMVKLYENNTKYTPGLYNYYYYFKKSFDSRHDLSHKLYTPKLSEYIADINPDLIISTFPLAAACVNNFKIKNPDINIPTLTVITDVVDSMEWVFENTDLYFVPSPEIKNRFFQKGINPDSIKVTGVPLEHHHHHH | not soluble
MRLFAIVLLCLVLATCASHIPSARVTHPASAGLPGLQGFQLMPPEQAVDALPYRNRYPLINAELRQGLAAHGYHESATPQFRVYYWLALRDAPLEFRPDLPPTSGMGPYLAIHRLRDETGTLRVRLVDLEERVLWEGMVSTGLSPARANPEQLELAVGALLRQLPRAR | not soluble
MGSDKIHHHHHHMTPIPKTSVPKTSVPTTPEPIRTNIPTALGKCLSLCLCLLLPLTQAWAETPANADVTASDNAIIAGHEFSHDSSEFKTPRRYMVSLPEGYHGNTRHYPVLYVVDADFQFQHVSALALHLARMGKIAPMIVVGIANQGQSDYLYTTTWKSDEGEAFGGADTFYRYLAKELIPTIDKQFRTNPHKALAGYSLGGLFTLYAMTQANSPFDAYLAMSPSVWYDKMHYIELLKQRLQKSPIEAPLFLTLANEQEMGVDELVTALKGYDAQKIHWQFKQYPSENHFTTALPALNDGLLFLSPDYGLDGSDMLALGDYRAVLDYFAKRKANWAGFHIEWLQAYQFGKYLFWSKQLDKLDGILAAVKQEFPDSLTIVTVQVAKGFNVKGDGARAKALLDSVAKEGEASPYWHREMSLYYQSQGDEANAQRHQQKALALATQYRLNTWELWELQ | not soluble
MGFRLGIVGLPNVGKSTLFNALTKTMKAQAANYPFCTIEPNVGVVEVPDERLYKLAEIEKSQKITPTFIEFVDIAGLVKGASKGEGLGNQFLSHIREVDAVAMVLRAFEDENIVHVEGSVDPVRDKEIVEIELIAKDLESVNRRIEKVQKVAKGGDKKAREEMEHLNALKEILENLEPIRKYADKLPPETLEYAKKTLFLLTVKPVMYIANISEKDLPEGEGNPHVERIKEMANQENAPVVVISAELEAQLAGLSEEEQKEMLEAYGLKEPGLNKVIRTGYRLLDLITFFTAGEREARAWTVKRGTKAPQAAGKIHSDMERGFIAAEVISYEDLIKAGSWAKAKEQGLIRLEGKDYEIQDGDVVYFRFNV | soluble
MKIVCIGAAPTALGAAYRLNELKNEGNEAAQNAEIVLLEQEAIAGGLSCTVTDEKGFLWDMGGHITFNHNYPYYEKATQWAVDDWNKLARNCMVDMNYLYDKKGIHLVPYPAQFAVPLFPDEVKNRCLADLKERYENPQDGTTPDNFEEWVLQHFGPTILNTFFKPYTKKVWTVEPLKMSPNWVGSRVAKLPQEKLEELCSMDQAELANADFGWGPNSYFTFPTYGGTGNVWNSMAKKLPNEWFKFNNKVTGVDHKEKTVEILEKGQTEPTKMSYDVLLNTAPIDQLVNNTQITAPLDIVHNKVFIVGVGLRKPMTSFLEKFTWLYFPDREVPFFRVTILSRYGEVTPDGDKYWSVMCECARPIDDPITEEEMVKKTLDGLVIKDMITREAIESVYSITLPYGYPIPTPNRDRELARAHGELERHQIYSRGRFGGWKYEASNQDHCFIQGKEFIDRVILGEPEKLYKTGVPTIPRGAAALEHHHHHH | soluble
MSLKITGNTILITGGGSGIGRALAEAFHQAGNRVIISGRRQAVLDEVTAANPGMASMVMDAGDAEGIRAFAEALVKAHPTLNAVINNAGIMRPEEIAAAPDYLDTAEETIATNLLAPIRLTAALLPHFLKQPAATVLTVSSGLAFVPMVLTPTYSATKSAIHAYSVALREQLKETSVEVIEIVPPYVQTTLMGEGQANDERAMPLEAFISEVMDILKNRPDEKEVVVERCKPLRFAAQNGNFDQVFAMINHMHEGHHHHHH | soluble
MYEAIGHRVEDGVAEITIKLPRHRNALSVKAMQEVTDALNRAEEDDSVGAVMITGAEDAFCAGFYLREIPLDKGVAGVRDHFRIAALWWHQMIHKIIRVKRPVLAAINGVAAGGGLGISLASDMAICADSAKFVCAWHTIGIGNDTATSYSLARIVGMRRAMELMLTNRTLYPEEAKDWGLVSRVYPKDEFREVAWKVARELAAAPTHLQVMAKERFHAGWMQPVEECTEFEIQNVIASVTHPHFMPCLTRFLDGHRADRPQVELPAGV | soluble
MGHHHHHHENLYFQSHLYFQSHMDVAPLNLGMIAAYYYINYTTIELFSMSLNAKTKVRGLIEIISNAAEYENIPIRHHEDNLLRQLAQKVPHKLNNPKFNDPHVKTNLLLQAHLSRMQLSAELQSDTEEILSKAIRLIQACVDVLSSNGWLSPALAAMELAQMVTQAMWSKDSYLKQLPHFTSEHIKRCTDKGVESVFDIMEMEDEERNALLQLTDSQIADVARFCNRYPNIELSYEVVDKDSIRSGGPVVVLVQLEREEEVTGPVIAPLFPQKREEGWWVVIGDAKSNSLISIKRLTLQQKAKVKLDFVAPATGAHNYTLYFMSDAYMGCDQEYKFSVDVKEAETDSDSD | soluble
SLVGYSAVSQPSPASFLLGPTLPPAPSIAFRLWRPYSMTARITSVEALPYRLPLTSKLAWGAHSALSAAEHVLVRVTLSDGSVGVAEATPRPTIYGETPGSVTAILQHLEPALLGLDIADEAALNRVRGSVAGNHTARGALDMALWEARAASRGQSLFDTLLGPHERVRVSFILGIAPPAEMLAEAERVVAAGVRCLKVKVGRHAAQDLQVIAELRRRYGDDVQLYADSNETLTLEQAPDVLAAMREAGLMYVEEPLPARDLRARAALHAAGVLPIVADDSCFTPADLERELDFDTFDVLNVKTARNGFTDGLQMLRRAAEHGKRGMVGSQASTGLGTLHAALLSTQAEVTEPCELSFVLKLGDDLLNRPIEFQDGWLNVPELREHRLDEDKLARYRI | soluble
MVAHSSVEGNQGIEDRQVSTEASSDVFQSQRSRPRQSTVAFQTHFKPFNYARDFKIISNTTSMLEESGFYWGPMTVEEAHLKLKKESVGTFLIRDSRQSDVFFTLSYKAQNGPVSIRINFKNSKFSLTGSKESFDSLFKLLEHYISSPKKGLIRPCRKEPVQSLQQLCRRQIMERCDGKDIDCIPVQPILKDFLHAFPHPL | not soluble
MGSDKIHHHHHHARTILREELAQNSINKYSVKQYCQASGVGRASFYSTYNGMPDLFCNTLQFEIRKHFQNYSDCNSRKLVYALLKEIGDHRIYYTNIYRLTNKNTSKIHICHQINHAFFTEMQKHLQNSNCSNKQIQSMTNIIFSRVVSWVAHNCKEKVLDVYVDLEYVLPSN | not soluble
